As a reminder, the Kd is the concentration at which binding is half-saturated. Lower therefore signals higher affinity. Broadly, the koff is the rate constant with which the complex falls apart. Broadly, the kon is the second-order rate constant of association.

The record followed here is patent US20210032315A1 (VIVORYON THERAPEUTICS N V, published 2021).

One assay deals with T1, full length human CD32B (human, UniProt P31994 43-310).
T1 construct: whole, on cells; also called Fc gamma receptor
T1 sequence (looked up): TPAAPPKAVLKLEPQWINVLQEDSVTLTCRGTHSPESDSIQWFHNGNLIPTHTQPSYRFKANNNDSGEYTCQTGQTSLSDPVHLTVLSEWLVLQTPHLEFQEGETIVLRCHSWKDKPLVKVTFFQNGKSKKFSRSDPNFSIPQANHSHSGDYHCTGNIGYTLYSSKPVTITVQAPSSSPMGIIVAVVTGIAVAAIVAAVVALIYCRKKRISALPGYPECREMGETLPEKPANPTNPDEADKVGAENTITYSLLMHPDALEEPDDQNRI
Kind of assay: FACS on CHO cells stably expressing the receptor, 7 concentrations. On the procedure: (§1) The binding was measured in a FACS based bioassay to Chinese Hamster Ovary (CHO) cells stably expressing full length human CD16A, CD32A, CD32B, or CD64. Both antibodies were incubated with each cell line at 7 different concentrations for one hour followed by washing. Receptor-bound H6 or H67 was detected with fluorochrome conjugated-anti-Fab′. Binding capacity was measured by FACS and the Kd and Bmax were calculated by non-linear regression.

In another assay the target is T2, full length human CD64 (human, UniProt P12314 16-374).
T2 construct: whole, on cells; also called Fc gamma receptor
The assay is described as above. The method, then:
as §1

A further assay has as its target T3, full length human CD32A (human, UniProt P12318 34-317).
T3 construct: whole, on cells; also called Fc gamma receptor
T3 sequence (looked up): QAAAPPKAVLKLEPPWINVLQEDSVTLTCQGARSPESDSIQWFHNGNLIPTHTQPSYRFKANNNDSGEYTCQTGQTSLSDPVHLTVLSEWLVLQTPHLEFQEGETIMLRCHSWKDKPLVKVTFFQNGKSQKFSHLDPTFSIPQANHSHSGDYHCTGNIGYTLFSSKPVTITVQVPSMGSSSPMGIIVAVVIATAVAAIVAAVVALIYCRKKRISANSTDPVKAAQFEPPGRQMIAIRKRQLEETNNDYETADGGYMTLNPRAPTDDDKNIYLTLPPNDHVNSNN
The description is as above. On the procedure:
as §1

The next assay addresses T4, full length human CD16A (human, UniProt P08637 17-254).
T4 construct: whole, on cells; also called Fc gamma receptor
The description is as above. The method, then:
as §1

The target in assay [1] is T5, Oligomers of Aβ (1-42) peptides (human).
T5 construct: Oligomeric Aβ 1-42, made by the ACUMEN protocol in Ham's F12 at 4 °C and captured on the sensor chip (about 300 RU); also called Aβ (1-42) oligomers
In words: SPR, oligomers captured on the chip, antibody as analyte, single cycle kinetics. On the procedure: Oligomers of Aβ (1-42) peptides were generated according to the ACUMEN protocol in Ham's F12 medium overnight at 4° C. and separated from aggregated Aβ by centrifugation. Afterwards the oligomers were aspirated in 20 μl, diluted in 60 μl running buffer and loaded onto a sensor chip by use of capture antibodies with a flow rate of 1 μl/min. Then, the system was washed overnight with 100 μl/min getting a stable baseline.
(§2) The obtained sensorgrams were evaluated using five consecutive concentrations (starting with the first injection showing binding) and the Single Cycle Kinetics model with a global fit of Rmax and baseline drift and local fits of the bulk effect of every injection.

Assay [2] concerns the target T6, Fibrils of Aβ (1-42) peptides (human).
T6 construct: Fibrillar aggregate of Aβ 1-42, made at pH 8.7 and 37 °C and captured on the sensor chip (about 100 RU); also called Aβ (1-42) fibrils
In words: SPR, fibrils captured on the chip, antibody as analyte, single cycle kinetics. The method, then:
as §2
In general terms: In SPR one partner is held on a chip, and binding of the other changes the refractive index at the surface.

The next assay concerns the target T7, Aβ (1-18) (human).
T7 peptide: DAEFRHDSGYEVHHQKLV
In words: SPR, antibody captured by anti-human antibody, peptide as analyte.

Assay [3] has as its target T8, Aβ (4-18) (human).
T8 peptide: FRHDSGYEVHHQKLV
Kind of assay: SPR, antibody captured by anti-human antibody, peptide as analyte, steady-state model.

The target of assay [4] is T8, Aβ (4-18). The description is as above.

Like-named read-outs stand apart in the source and are kept apart here.

T6 sequence (peptide, as listed by the source): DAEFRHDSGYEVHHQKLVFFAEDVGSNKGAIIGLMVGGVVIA
T5 sequence (peptide, as listed by the source): as above
T2 sequence (P12314 16-374): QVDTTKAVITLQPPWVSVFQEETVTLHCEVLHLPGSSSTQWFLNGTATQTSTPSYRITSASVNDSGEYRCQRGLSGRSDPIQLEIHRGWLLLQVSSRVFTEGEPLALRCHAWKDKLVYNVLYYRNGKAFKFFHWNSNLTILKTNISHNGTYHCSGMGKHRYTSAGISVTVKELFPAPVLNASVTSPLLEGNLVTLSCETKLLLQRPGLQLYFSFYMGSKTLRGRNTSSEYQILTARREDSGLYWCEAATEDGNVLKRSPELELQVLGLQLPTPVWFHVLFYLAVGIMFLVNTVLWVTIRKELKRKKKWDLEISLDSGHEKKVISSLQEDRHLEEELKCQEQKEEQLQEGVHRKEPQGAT
T4 sequence (P08637 17-254): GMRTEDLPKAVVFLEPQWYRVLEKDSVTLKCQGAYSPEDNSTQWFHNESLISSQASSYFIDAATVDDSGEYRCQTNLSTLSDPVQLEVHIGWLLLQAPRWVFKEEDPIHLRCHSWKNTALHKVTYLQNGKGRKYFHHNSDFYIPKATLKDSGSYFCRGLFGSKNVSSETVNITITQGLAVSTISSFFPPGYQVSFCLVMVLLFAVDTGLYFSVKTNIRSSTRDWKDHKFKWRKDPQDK

B1: antibody comprising the wild-type heavy chain of SEQ ID NO: 19 (antibody, human IgG1, kappa)
heavy: not shown
light: DVVMTQSPLSLPVTLGQPASISCKSSQSLLYSDGKTYLNWFQQRPGQSPRRLTYLVSKLDSGVPDRFSGSGSGTDFTLKISRVEAEDVGVYYCVQGTHFPFTFGGGTKVEIKRTVAAPSVFIFPPSDEQLKSGTASVVCLLNNFYPREAKVQWKVDNALQSGNSQESVTEQDSKDSTYSLSSTLTLSKADYEKHKVYACEVTHQGLSSPVTKSFNRGEC
notes: also called antibody according to A)
In the case of B1, the binding result in the assay with full length human CD32B, in the assay with full length human CD64, in the assay with full length human CD32A and with full length human CD16A was “binds” each time.

B2: K324A mutant variant (comprising the heavy chain of SEQ ID NO: 18) (antibody, human IgG1, kappa)
heavy: not shown
light: DVVMTQSPLSLPVTLGQPASISCKSSQSLLYSDGKTYLNWFQQRPGQSPRRLTYLVSKLDSGVPDRFSGSGSGTDFTLKISRVEAEDVGVYYCVQGTHFPFTFGGGTKVEIKRTVAAPSVFIFPPSDEQLKSGTASVVCLLNNFYPREAKVQWKVDNALQSGNSQESVTEQDSKDSTYSLSSTLTLSKADYEKHKVYACEVTHQGLSSPVTKSFNRGEC
notes: also called antibody according to B)
For B2, the binding result with full length human CD32B, with full length human CD64, in the assay with full length human CD32A and with full length human CD16A was “binds” throughout.

B3: parental antibody clone #6 disclosed in WO 2017/009459 (antibody, V domains shown)
VH: QVQLVQSGAEVKKSGASVKVSCKASGYSFTGHTMNWVRQAPGQGLEWMGLINPSNGVTRYNQKFQGRVTITRDTSTTTVHMELTSLTSEDTATYYCTREAKREWDETYWGQGTLVTVSS
VL: DVVMTQSPLSLPVTLGQPASISCKSSQSLLYSDGKTYLNWFQQRPGQSPRRLTYLVSKLDSGVPDRFSGSGSGTDFTLKISRVEAEDVGVYYCVQGTHFPFTFGGGTKVEIK
notes: also called parental clone #6 variant
Consider B3, for which, in assay [1], the Kd worked out at 7.61 nM, the koff came to 0.000142 s⁻¹ and the kon was found to be 18600 M⁻¹ s⁻¹. In [2], binding was characterised by a dissociation constant (Kd) of 0.0659 nM, the koff came to 6.53e-05 s⁻¹ and the kon was found to be 990000 M⁻¹ s⁻¹.

B4: humanized and de-immunized antibody clone #6 of the present invention (antibody, V domains shown)
VH: QVQLVQSGAEVVKPGASVKVSCKASGYSFTGHTMNWVRQAPGQGLEWMGLINPSDGVTRYNQKFQGRVTITRDTSTTTVHMELTSLTSEDTATYYCTREAKREWDETYWGQGTLVTVSS
VL: DVVMTQSPLSLPVTLGQPASISCKSSQSLLYSDGKTYLNWFQQRPGQSPRRLTYLVSKLDSGVPDRFSGSGSGTDFTLKISRVEAEDVGVYYCVQGTHFPFTFGGGTKVEIK
notes: It was captured by a polyclonal anti-human antibody, so it has human constant regions
Take B4: the Kd is over 10000 nM with Aβ (1-18); 269 nM in [1]; 1.67 nM in assay [2]; 28300 nM with Aβ (4-18) [3]; over 10000 nM with Aβ (4-18) [4].
